Reference: US7560106B2, “Rationally designed heparinases derived from heparinase I and II and methods of sequencing therewith” (Massachusetts Institute of Technology, priority 1998, dated 2009)
Positions count from the first letter of the chain named. Numbers in names are those of the source. Entries after “also recorded” stand apart in the source; their conditions may differ.

B1: D210A: heparinase I CB-1 mutant, aspartate 210 changed to alanine (protein, UniProt Q05819 22-384, looked up, variant D210A)
Heparin lyase I: QQKKSGNIPYRVNVQADSAKQKAIIDNKWVAVGINKPYALQYDDKLRFNGKPSYRFELKAEDNSLEGYAAGETKGRTELSYSYATTNDFKKFPPSVYQNAQKLKTVYHYGKGICEQGSSRSYTFSVYIPSSFPDNATTIFAQWHGAPSRTLVATPEGEIKTLSIEEFLALYDRMIFKKNIAHDKVEKKAKDGKITYVAGKPNGWKVEQGGYPTLAFGFSKGYFYIKANSDRQWLTDKADRNNANPENSEVMKPYSSEYKTSTIAYKMPFAQFPKDCWITFDVAIDWTKYGKEANTILKPGKLDVMMTYTKNKKPQKAHIVNQQEILIGRNDDDGYYFKFGIYRVGNSTVPVTYNLSGYSETAR
B2: G213A: heparinase I CB-1 mutant, glycine 213 changed to alanine (protein, UniProt Q05819 22-384, looked up, variant G213A)
Heparin lyase I: B1 Heparin lyase I with A189D, G192A
B3: E207A/D212A: heparinase I CB-1 double mutant (protein, UniProt Q05819 22-384, looked up, variant E207A D212A)
Heparin lyase I: B1 Heparin lyase I with E186A, A189D, D191A
B4: D212A: heparinase I CB-1 mutant, aspartate 212 changed to alanine (protein, UniProt Q05819 22-384, looked up, variant D212A)
Heparin lyase I: B1 Heparin lyase I with A189D, D191A
B5: E381A/T382A: heparinase I CB-2 double mutant (protein, UniProt Q05819 22-384, looked up, variant E381A T382A)
Heparin lyase I: B1 Heparin lyase I with A189D, E360A, T361A
B6: T382A: heparinase I CB-2 mutant, threonine 382 changed to alanine (protein, UniProt Q05819 22-384, looked up, variant T382A)
Heparin lyase I: B1 Heparin lyase I with A189D, T361A
B7: Y379A: heparinase I CB-2 mutant, tyrosine 379 changed to alanine (protein, UniProt Q05819 22-384, looked up, variant Y379A)
Heparin lyase I: B1 Heparin lyase I with A189D, Y358A
B8: T216A: heparinase I CB-1 mutant, threonine 216 changed to alanine (protein, UniProt Q05819 22-384, looked up, variant T216A)
Heparin lyase I: B1 Heparin lyase I with A189D, T195A
B9: D212A/T216A: heparinase I CB-1 double mutant (protein, UniProt Q05819 22-384, looked up, variant D212A T216A)
Heparin lyase I: B1 Heparin lyase I with A189D, D191A, T195A
B10: G213A/T216A: heparinase I CB-1 double mutant (protein, UniProt Q05819 22-384, looked up, variant G213A T216A)
Heparin lyase I: B1 Heparin lyase I with A189D, G192A, T195A
B11: D210A/D212A: heparinase I CB-1 double mutant (protein, UniProt Q05819 22-384, looked up, variant D210A D212A)
Heparin lyase I: B1 Heparin lyase I with D191A
B12: S377A: heparinase I mutant where serine 377 is mutated to alanine; calcium-independent (protein, UniProt Q05819 22-384, looked up, variant S377A)
Heparin lyase I: B1 Heparin lyase I with A189D, S356A
B13: E207A/D210A: heparinase I CB-1 double mutant (protein, UniProt Q05819 22-384, looked up, variant E207A D210A)
Heparin lyase I: B1 Heparin lyase I with E186A
B14: T373A: heparinase I CB-2 mutant, threonine 373 changed to alanine (protein, UniProt Q05819 22-384, looked up, variant T373A)
Heparin lyase I: B1 Heparin lyase I with A189D, T352A
B15: G378A: heparinase I CB-2 mutant, glycine 378 changed to alanine (protein, UniProt Q05819 22-384, looked up, variant G378A)
Heparin lyase I: B1 Heparin lyase I with A189D, G357A

Tests used:
[1] = Heparinase I UV 232 nm activity assay as a function of heparin concentration (Kcat, Km); type: biochemical, porcine; conditions: for Kcat / Km: heparin 0 to 4 mg/ml, 5 mM calcium acetate, pH 7.0; for Kcat: 100 mM MOPS; for effect on enzyme activity (kcat), in words: compared to wild-type r-heparinase I
Excerpt: Heparinase II Activity Assay. Native heparinase II from Flavobacterium heparinum, was purified as described previously (Godavarti, R., and Sasisekharan, R (1996c) Biochem. Biophys. Res. Comm. 229, 770-777). The UV 232 nm assay to quantify native heparinase II enzymatic activity was similar to that reported for heparinase I (Bernstein, H., Yang, V. C., Cooney, C. L., Langer, R. (1988) Meth. Enzym. 137, 515-29). Briefly, the course of the reaction is monitored by measuring the increase in absorbance at 232 nm as a function of time under saturating substrate concentrations. With heparin as the substrate, the reaction was carried out at a concentration of 4 mg/ml in 50 mM sodium phosphate buffer, pH 7.3. With 2 mg/ml heparan sulfate, the reaction was measured in 50 mM sodium phosphate buffer, pH 6.9 (Sasisekharan, R., Moses, M. A., Nugent, M. A., Cooney, C. L., Langer, R. (1994) Proc. Natl. Acad. Sci., USA 91, 1524-1528). The temperature for all enzymatic activity measurements was kept constant at 35° C.
Heparinase I Activity Assay. The UV 232 nm assay to quantify heparinase I enzymatic activity was similar to that described in Example 1. With heparin as the substrate, the reaction was carried out at a concentration of 4 mg/ml in 100 mM MOPS, 5 mM calcium acetate, pH 7.0. The temperature for all enzymatic activity measurements was kept constant at 30° C. For the inactivation kinetic profiles, activity was measured as outlined above at precise time points.
(§1) Heparinase I Activity Assays: The UV 232 nm assay was used as described in Example 1. When measuring the enzyme activity as a function of heparin concentration, heparin concentrations varied from 0 to 4 mg/ml at a fixed calcium concentration of 5 mM (100 mM MOPS buffer/5 mM calcium acetate, pH 7.0). The data was then fit to an non-linear equation to determine Kcat and Km of heparinases I. Heparinase mutant activity was also investigated as a function of calcium concentration ranging from 0 to 10 mM. […] Activity is expressed as IU-μmol product formed/min using ∈=−3800-M^−1CM^−1.

[2] = Heparin-POROS affinity chromatography; type: binding; conditions: for NaCl: salt concentration at which enzyme elutes from heparin-POROS column, 10 mM Tris, 1 mM EDTA pH 7.0
Procedure: Heparin-POROS chromatography: About 30-40 μg of -L r-heparinase I and the various mutant enzymes were injected into a heparin POROS (4.6 mm×100) column (PerSeptive BioSystems, Framingham, Mass.) connected to BioCAD system (PerSeptive BioSystems). Proteins were eluted using a linear gradient of […] NaCl in 10 min (10 mM Tris, 1 mM EDTA pH 7.0) and monitored at 210 nm. EDTA was added to chelate any calcium ions that may be present in the buffers.

[3] = Heparinase I activity as a function of calcium concentration (K0.5, calcium dependence); type: biochemical
Procedure: as §1

[4] = calcium concentration at which half of the maximum enzyme activity was observed, calcium 0 to 10 mM, Table 4 first K0.5 column

elution salt concentration / heparin binding relative to wild-type r-heparinase I, in words [2]	Molecule	Kcat [1] [s⁻¹]	Km [1] [nM]	NaCl [2] [mM]	K0.5 ([3]; Table 4 second K0.5 column) [µM]	K0.5 [3, 4] [µM]	decrease in Kcat compared to wild-type r-heparinase I [1]	effect on enzyme activity (kcat), in words [1]	dependence of enzyme activity on calcium [3]
–	B1	74	2640	500	310	310	–	–	–
–	B2	28	970	476	740	740	about 3 fold	–	–
–	B3	58	930	513	710	710	–	–	–
–	B4	65	1940	498	370	370	–	–	–
–	B5	10	1750	505	180	180	–	–	–
comparable to wild-type r-heparinase I	B6	65	1640	488	100	100	–	decreased only by about 1 half	–
comparable to wild-type r-heparinase I	B7	9	320	489	230	230	about 10 fold	–	–
–	B8	50	1450	479	430	430	~2 fold	–	–
–	B9	52	1520	497	320	320	–	–	–
–	B10	19	830	498	2200	2200	5 fold	–	–
–	B11	21	320	515	700	700	4.5 fold	–	–
comparable to wild-type r-heparinase I	B12	71	2740	486	50	50	–	no significant decrease in enzyme activity	loss of dependence on calcium; also recorded: calcium-independent
–	B13	65	2770	513	470	470	–	–	–
comparable to wild-type r-heparinase I	B14	85	960	480	50	50	–	no significant decrease in enzyme activity	–
comparable to wild-type r-heparinase I	B15	41	740	489	80	80	–	decreased only by about 1 half	–
